Assay results published in patent US20170247440A1 (Hoffmann-La Roche, published 2017).
Read-outs that look alike come from different tables or passages of the source.

T1: human ANG2-RBD-mouse Fc-region fusion (human, UniProt O15123 275-496, limits assumed)
T1 sequence (looked up): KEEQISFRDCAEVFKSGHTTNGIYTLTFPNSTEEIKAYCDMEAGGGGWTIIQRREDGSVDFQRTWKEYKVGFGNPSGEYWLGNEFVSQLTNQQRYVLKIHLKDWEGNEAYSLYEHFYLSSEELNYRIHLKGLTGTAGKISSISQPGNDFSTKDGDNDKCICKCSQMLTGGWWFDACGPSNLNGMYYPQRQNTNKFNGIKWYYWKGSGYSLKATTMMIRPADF


Experiments:
[1] = target: T2, human PDGF-BB (human, UniProt P01127 82-190); assay: cell-based or functional assay
[2] = target: T2, human PDGF-BB; assay: cell-based or functional assay; remark: listed apart in the source
[3] = target: T2, human PDGF-BB; assay: SPR, on immobilized human PDGF-BB (Example 32); design: t½: unit not given here
[4] = target: T2, human PDGF-BB; assay: cell-based or functional assay; remark: listed apart in the source
[5] = target: T2, human PDGF-BB; assay: cell-based or functional assay; remark: listed apart in the source
[6] = target: T1, human ANG2-RBD-mouse Fc-region fusion; assay: cell-based or functional assay

T2 sequence (P01127 82-190 limits assumed): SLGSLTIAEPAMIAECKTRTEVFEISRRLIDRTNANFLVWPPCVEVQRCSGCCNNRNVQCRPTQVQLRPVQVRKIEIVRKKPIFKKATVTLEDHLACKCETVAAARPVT

Binder | Balb-C3T3 Proliferation % neutralization [1] [%] | Balb-C3T3 Proliferation IC50 [1] [nM] | Pericytes Migration % neutralization [1] [%] | Pericytes Migration IC50 [1] [nM] | Pericytes Proliferation % neutralization [1] [%] | Pericytes Proliferation IC50 [1] [nM] | further results
antibody 0086 (antibody, V domains shown) VH: EVQLVESGGGLVQPGGSLRLSCAASGFTFSSYWMSWVRQAPEKGLEWVSTISDGGGLTYYADSVKGRFTISRDNAKNSLYLQMNSLRAEDTAVYYCAESGGYTDWLFGYWGQGTLVTVSS VL: not shown | 100 | 0.11 | 100 | 0.09 | 100 | 0.09 | –
antibody 0085 (antibody, V domains shown) VH: EVQLVESGGGLVQPGGSLRLSCAASGFTFSSYWMSWVRQAPEKGLEWVSTISDGGGLTYYADSVKGRFTISRDNAKNSLYLQMNSLRAEDTAVYYCAESGGYTDWLFGYWGQGTLVTVSS VL: not shown | 100 | 0.06 | 90 | 0.15 | 100 | 0.11 | –
mumAb (murine anti-human PDGF-B antibody) (antibody, V domains shown) VH: QVQLQQSGAELMKPGASVKISCKATGYTFSSYWIEWVKQRPGHGLEWIGEILPGSGSTNYNEKFKVKATFTADTSSNTAYMQLSSLTSEDSAVYYCAQTTQDFDSWGQGTTLTVSS VL: DIVLTQSPGSLAVSLGQRATISCRASESVDIYGYSFMHWYQQKPGQPPKLLIYRASNLESGIPARFSGSGSRTDFTLTINPVEADDVATYYCQQSNEDPRTFGGGTKLEIK | – | – | – | – | – | – | Balb-C3T3 Proliferation IC50 [2]: 0.179 nM; Pericytes Migration IC50 [2]: 0.08 nM; Pericytes Proliferation IC50 [2]: 0.21 nM
antibody 0117 (bispecific anti-VEGF/PDGF-B CrossMab antibody) (bispecific antibody, human IgG1, kappa, L234A L235A, also called anti-PDGFB/VEGF antibody) chain 1: DIQLTQSPSSLSASVGDRVTITCSASQDISNYLNWYQQKPGKAPKVLIYFTSSLHSGVPSRFSGSGSGTDFTLTISSLQPEDFATYYCQQYSTVPWTFGQGTKVEIKSSASTKGPSVFPLAPSSKSTSGGTAALGCLVKDYFPEPVTVSWNSGALTSGVHTFPAVLQSSGLYSLSSVVTVPSSSLGTQTYICNVNHKPSNTKVDKKVEPKSCDKTHTCPPCPAPEAAGGPSVFLFPPKPKDTLMASRTPEVTCVVVDVSHEDPEVKFNWYVDGVEVHNAKTKPREEQYNSTYRVVSVLTVLAQDWLNGKEYKCKVSNKALGAPIEKTISKAKGQPREPQVYTLPPCRDELTKNQVSLWCLVKGFYPSDIAVEWESNGQPENNYKTTPPVLDSDGSFFLYSKLTVDKSRWQQGNVFSCSVMHEALHNAYTQKSLSLSPGK chain 2: not shown chain 3: EVQLVESGGGLVQPGGSLRLSCAASGYDFTHYGMNWVRQAPGKGLEWVGWINTYTGEPTYAADFKRRFTFSLDTSKSTAYLQMNSLRAEDTAVYYCAKYPYYYGTSHWYFDVWGQGTLVTVSSASVAAPSVFIFPPSDEQLKSGTASVVCLLNNFYPREAKVQWKVDNALQSGNSQESVTEQDSKDSTYSLSSTLTLSKADYEKHKVYACEVTHQGLSSPVTKSFNRGEC chain 4: not shown | – | – | – | – | – | – | Kd [3]: 3 nM; koff [3]: 0.000245 s⁻¹; kon [3]: 76700 M⁻¹ s⁻¹; t½ [3]: 47; IC50 Proliferation 3T3 [4]: 0.019 nM; IC50 Proliferation human pericytes [4]: 0.016 nM; IC50 Migration-Inhibition human pericytes [5]: 0.06 nM; IC50 Phospho-Inhibition human pericytes [5]: 0.055 nM
antibody 0144 (bispecific anti-ANG2/PDGF-B CrossMab antibody) (bispecific antibody, human IgG1, kappa, L234A L235A) heavy 1: SYVLTQPPSVSVAPGQTARITCGGNNIGSKSVHWYQQKPGQAPVLVVYDTSDRPSGIPERFSGSNSGNTATLTISRVEAGDEADYYCQVWDSSSDHWVFGGGTKLTVLSSASTKGPSVFPLAPSSKSTSGGTAALGCLVKDYFPEPVTVSWNSGALTSGVHTFPAVLQSSGLYSLSSVVTVPSSSLGTQTYICNVNHKPSNTKVDKKVEPKSCDKTHTCPPCPAPEAAGGPSVFLFPPKPKDTLMASRTPEVTCVVVDVSHEDPEVKFNWYVDGVEVHNAKTKPREEQYNSTYRVVSVLTVLAQDWLNGKEYKCKVSNKALGAPIEKTISKAKGQPREPQVYTLPPCRDELTKNQVSLWCLVKGFYPSDIAVEWESNGQPENNYKTTPPVLDSDGSFFLYSKLTVDKSRWQQGNVFSCSVMHEALHNAYTQKSLSLSPGK heavy 2: not shown light 1: not shown light 2: not shown | – | – | – | – | – | – | ANG2 specific pTie2-ELISA [6]: 6 fold
